# Test results: paper PMC3333781, “Systematic mapping of two component response regulators to gene targets in a model sulfate reducing bacterium”
# T1: DVU1419 response regulator (Desulfovibrio vulgaris Hildenborough) (UniProt Q72C65)
# T1 sequence: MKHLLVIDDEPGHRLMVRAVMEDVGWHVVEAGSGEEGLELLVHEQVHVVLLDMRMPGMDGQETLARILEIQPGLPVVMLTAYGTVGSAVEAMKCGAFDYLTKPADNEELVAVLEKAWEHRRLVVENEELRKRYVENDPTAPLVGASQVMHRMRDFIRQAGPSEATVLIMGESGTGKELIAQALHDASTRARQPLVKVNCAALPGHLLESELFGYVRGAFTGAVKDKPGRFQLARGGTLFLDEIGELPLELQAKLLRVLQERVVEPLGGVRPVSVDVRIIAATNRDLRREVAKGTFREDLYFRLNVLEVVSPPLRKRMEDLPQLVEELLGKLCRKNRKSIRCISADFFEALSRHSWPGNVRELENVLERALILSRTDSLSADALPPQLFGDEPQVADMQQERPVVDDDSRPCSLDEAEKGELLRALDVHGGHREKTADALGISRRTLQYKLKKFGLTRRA
# T2: DVU0679 response regulator (Desulfovibrio vulgaris Hildenborough, UniProt Q72E99 1-488)
# T2 sequence: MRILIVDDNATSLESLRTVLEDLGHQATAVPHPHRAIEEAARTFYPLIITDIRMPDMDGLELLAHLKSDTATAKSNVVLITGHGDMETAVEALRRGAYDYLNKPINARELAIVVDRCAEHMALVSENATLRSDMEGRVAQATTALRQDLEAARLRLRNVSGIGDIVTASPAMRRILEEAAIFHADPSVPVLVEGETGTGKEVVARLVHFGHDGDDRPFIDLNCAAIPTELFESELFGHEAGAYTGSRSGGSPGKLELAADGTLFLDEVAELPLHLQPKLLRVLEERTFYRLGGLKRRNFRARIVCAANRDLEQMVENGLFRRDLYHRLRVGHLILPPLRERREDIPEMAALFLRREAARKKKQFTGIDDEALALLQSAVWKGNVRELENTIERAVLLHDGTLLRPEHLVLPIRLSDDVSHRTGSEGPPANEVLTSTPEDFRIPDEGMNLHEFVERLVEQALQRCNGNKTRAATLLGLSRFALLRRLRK
# T3: DVU0539 response regulator (Desulfovibrio vulgaris Hildenborough, UniProt Q72EN8 1-467)
# T3 sequence: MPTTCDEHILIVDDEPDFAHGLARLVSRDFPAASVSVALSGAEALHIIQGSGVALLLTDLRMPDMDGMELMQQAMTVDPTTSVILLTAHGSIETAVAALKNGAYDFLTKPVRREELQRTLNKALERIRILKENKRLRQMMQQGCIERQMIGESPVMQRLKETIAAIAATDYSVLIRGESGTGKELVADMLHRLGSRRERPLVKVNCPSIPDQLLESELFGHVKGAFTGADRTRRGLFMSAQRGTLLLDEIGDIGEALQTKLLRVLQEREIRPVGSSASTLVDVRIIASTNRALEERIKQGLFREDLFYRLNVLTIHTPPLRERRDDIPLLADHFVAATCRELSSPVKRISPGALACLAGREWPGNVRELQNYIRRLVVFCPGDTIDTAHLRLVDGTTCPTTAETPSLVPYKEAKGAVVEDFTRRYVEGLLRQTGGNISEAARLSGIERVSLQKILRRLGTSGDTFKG
# T4: DVU0946 response regulator (Desulfovibrio vulgaris Hildenborough, UniProt Q72DI3 1-476)
# T4 sequence: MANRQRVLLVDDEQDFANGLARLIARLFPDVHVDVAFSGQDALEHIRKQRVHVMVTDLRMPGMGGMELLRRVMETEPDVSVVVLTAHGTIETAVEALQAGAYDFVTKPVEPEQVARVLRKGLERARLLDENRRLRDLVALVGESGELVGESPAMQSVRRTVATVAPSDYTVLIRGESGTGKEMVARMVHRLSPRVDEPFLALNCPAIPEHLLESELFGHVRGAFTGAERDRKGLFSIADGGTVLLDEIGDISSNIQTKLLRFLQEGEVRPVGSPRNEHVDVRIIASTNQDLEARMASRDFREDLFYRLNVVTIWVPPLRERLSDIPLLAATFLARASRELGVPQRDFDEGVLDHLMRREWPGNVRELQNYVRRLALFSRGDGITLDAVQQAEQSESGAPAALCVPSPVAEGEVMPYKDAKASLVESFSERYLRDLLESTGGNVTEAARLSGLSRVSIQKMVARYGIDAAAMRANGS
# T5: DVU2394 response regulator (Desulfovibrio vulgaris Hildenborough, UniProt Q729F7 1-463)
# T5 sequence: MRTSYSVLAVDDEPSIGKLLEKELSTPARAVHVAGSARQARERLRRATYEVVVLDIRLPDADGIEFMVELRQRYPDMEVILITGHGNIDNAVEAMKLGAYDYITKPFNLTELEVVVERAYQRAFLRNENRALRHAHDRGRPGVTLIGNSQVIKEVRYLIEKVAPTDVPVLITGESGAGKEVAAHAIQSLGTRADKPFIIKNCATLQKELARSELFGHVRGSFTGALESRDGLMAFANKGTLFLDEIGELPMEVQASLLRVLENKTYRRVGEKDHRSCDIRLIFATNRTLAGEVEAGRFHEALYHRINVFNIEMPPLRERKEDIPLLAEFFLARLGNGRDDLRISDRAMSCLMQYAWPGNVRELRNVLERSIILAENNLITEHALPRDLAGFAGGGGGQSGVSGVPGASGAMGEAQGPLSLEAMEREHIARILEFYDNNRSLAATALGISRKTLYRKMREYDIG
# T6: DVU1419 response regulator (Desulfovibrio vulgaris Hildenborough, UniProt Q72C65 1-459)
# T6 sequence: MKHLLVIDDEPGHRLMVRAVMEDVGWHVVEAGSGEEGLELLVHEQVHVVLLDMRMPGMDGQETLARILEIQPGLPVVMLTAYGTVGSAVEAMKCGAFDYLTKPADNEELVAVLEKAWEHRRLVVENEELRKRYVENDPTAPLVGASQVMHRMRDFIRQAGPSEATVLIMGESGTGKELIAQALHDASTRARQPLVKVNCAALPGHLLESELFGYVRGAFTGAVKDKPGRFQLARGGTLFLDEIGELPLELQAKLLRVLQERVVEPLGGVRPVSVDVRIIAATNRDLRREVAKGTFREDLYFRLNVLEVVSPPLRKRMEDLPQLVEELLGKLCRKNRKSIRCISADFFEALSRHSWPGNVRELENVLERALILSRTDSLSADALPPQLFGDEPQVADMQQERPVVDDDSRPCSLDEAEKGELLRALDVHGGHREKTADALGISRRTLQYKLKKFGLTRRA
# T7: DVU1063 response regulator (Desulfovibrio vulgaris Hildenborough, UniProt Q72D66 1-479)
# T7 sequence: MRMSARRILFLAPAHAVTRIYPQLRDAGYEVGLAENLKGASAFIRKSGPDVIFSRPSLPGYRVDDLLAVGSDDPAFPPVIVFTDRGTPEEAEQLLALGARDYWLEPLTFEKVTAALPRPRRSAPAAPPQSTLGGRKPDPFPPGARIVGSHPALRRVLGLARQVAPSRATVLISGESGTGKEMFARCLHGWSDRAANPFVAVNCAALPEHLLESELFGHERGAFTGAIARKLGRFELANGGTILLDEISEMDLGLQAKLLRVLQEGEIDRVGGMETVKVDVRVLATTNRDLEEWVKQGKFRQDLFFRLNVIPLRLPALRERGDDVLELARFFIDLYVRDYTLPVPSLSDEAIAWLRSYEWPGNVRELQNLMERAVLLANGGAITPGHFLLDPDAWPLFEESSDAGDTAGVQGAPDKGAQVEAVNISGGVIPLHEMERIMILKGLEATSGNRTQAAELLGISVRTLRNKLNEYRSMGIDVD
# T8: DVU0118 response regulator (Desulfovibrio vulgaris Hildenborough, UniProt Q72FU5 1-454)
# T8 sequence: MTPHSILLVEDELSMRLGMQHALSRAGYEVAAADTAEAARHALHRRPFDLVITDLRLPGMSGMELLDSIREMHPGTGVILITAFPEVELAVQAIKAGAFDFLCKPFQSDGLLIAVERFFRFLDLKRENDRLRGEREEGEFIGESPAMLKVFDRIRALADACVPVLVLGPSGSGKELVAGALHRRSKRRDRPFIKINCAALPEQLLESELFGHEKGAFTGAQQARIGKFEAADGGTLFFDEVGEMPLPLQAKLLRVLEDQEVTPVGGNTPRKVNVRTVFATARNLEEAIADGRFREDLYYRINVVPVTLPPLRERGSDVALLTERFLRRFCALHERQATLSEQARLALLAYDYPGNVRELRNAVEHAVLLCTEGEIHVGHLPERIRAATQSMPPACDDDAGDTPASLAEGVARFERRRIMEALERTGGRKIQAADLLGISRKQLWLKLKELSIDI
# Tests used:
# [1] = target: T1, DVU1419 response regulator (Desulfovibrio vulgaris Hildenborough); assay: EMSA; conditions: EMSA: 10 mM Tris-HCl pH 7.5, 1 mM DTT, 50 mM KCl, 5 mM MgCl2, 25% glycerol, 1 ug/ml poly dI-dC, 50-100 fmol biotin-DNA, 25-30 C, 20 min
# [2] = target: T2, DVU0679 response regulator; assay: EMSA; EMSA: 10 mM Tris-HCl pH 7.5, 1 mM DTT, 50 mM KCl, 5 mM MgCl2, 25% glycerol, 1 ug/ml poly dI-dC, 50-100 fmol biotin-DNA, 25-30 C, 20 min; conditions: protein: recombinant; tags: C-terminal V5-6xHis; chain copies: 2; label: 5'-biotin top strand; blunt
# [3] = target: T3, DVU0539 response regulator; assay: as above; conditions: protein: recombinant; tags: C-terminal V5-6xHis; chain copies: 2; label: 5'-biotin top strand; blunt
# [4] = target: T4, DVU0946 response regulator; assay: as above; conditions: protein: recombinant; tags: C-terminal V5-6xHis; chain copies: 2; label: 5'-biotin top strand; blunt
# [5] = target: T5, DVU2394 response regulator; assay: EMSA; 10 mM Tris-HCl pH 7.5, 1 mM DTT, 50 mM KCl, 5 mM MgCl2, 25% glycerol, 1 ug/ml poly dI-dC, 50-100 fmol biotinylated DNA, 25-30 C, 20 min; conditions: protein: recombinant; tags: C-terminal V5-6xHis; chain copies: 2; label: 5'-biotin top strand
# [6] = target: T6, DVU1419 response regulator; assay: EMSA; EMSA: 10 mM Tris-HCl pH 7.5, 1 mM DTT, 50 mM KCl, 5 mM MgCl2, 25% glycerol, 1 ug/ml poly dI-dC, 50-100 fmol biotin-DNA, 25-30 C, 20 min; conditions: protein: recombinant; tags: C-terminal V5-6xHis; chain copies: 2; label: 5'-biotin top strand; blunt
# [7] = target: T7, DVU1063 response regulator; assay: as above; conditions: protein: recombinant; tags: C-terminal V5-6xHis; chain copies: 2; label: 5'-biotin top strand; blunt
# [8] = target: T8, DVU0118 response regulator; assay: as above; conditions: protein: recombinant; tags: C-terminal V5-6xHis; chain copies: 2; label: 5'-biotin top strand; blunt
# [9] = target: T8, DVU0118 response regulator; assay: EMSA; 10 mM Tris-HCl pH 7.5, 1 mM DTT, 50 mM KCl, 5 mM MgCl2, 25% glycerol, 1 ug/ml poly dI-dC, 50-100 fmol biotinylated DNA, 25-30 C, 20 min; conditions: protein: recombinant; tags: C-terminal V5-6xHis; chain copies: 2; label: 5'-biotin top strand
molecule,measurement,setting,value
GTCGGCGATTTCCATGAAGACTCCGGTGGTGTCTGGCGGGACATGAAAGAACTGTGCCGAAGGGTGACACCCCGGCAGATGCTGATGCCGGGTGCGCCACCACAGGCCAGCCCTTGCACCATGTCGCATCGCAAGGTCTCTGCGTTGCCTCGCAACGCGGTGCCGTGCACCATGAATGTGCAAACGATGGCACACAACGCCACGGCGTGCAATAAGATGCACACCACCTGCACATATCAAGCCTCATGTGAAGGAAAAGGACGGC (double strand) [DVU1418 upstream],binding,[1],binds
DVU0677 motif wt (dsDNA) DNA 1: AATCGCACGCCGTGCGTATTCGCACGTGCTTTTCCG DNA 2: CGGAAAAGCACGTGCGAATACGCACGGCGTGCGATT,binding result,[2],binds
DVU0943 motif wt (dsDNA) DNA 1: AGGTTTACGATGCAAAGTGATGTTTGCAGCTTGCCGAG DNA 2: CTCGGCAAGCTGCAAACATCACTTTGCATCGTAAACCT,binding result,[3],binds
same,binding result,[4],binds
DVU2405 motif mut (dsDNA) DNA 1: TCCAGCCATCTATGTTTTTTCGTGACTATGTTGAAGTTCGACCCAA DNA 2: TTGGGTCGAACTTCAACATAGTCACGAAAAAACATAGATGGCTGGA,binding result,[5],no binding
DVU1418 motif wt (dsDNA) DNA 1: GCCGTGGCGTTGTGTGCCATCGTTTGCACATTCATGGTGC DNA 2: GCACCATGAATGTGCAAACGATGGCACACAACGCCACGGC,binding result,[6],binds
DVU1418 motif mut (dsDNA) DNA 1: GCCGTGGCGTTGTATGCCATCGTTTGCTCGTTCATGGTGC DNA 2: GCACCATGAACGAGCAAACGATGGCATACAACGCCACGGC,binding result,[6],no binding
DVU1032 motif wt (dsDNA) DNA 1: GGCATGGTCGGGCGGCAGTTTTTTCCTGTATCCTG DNA 2: CAGGATACAGGAAAAAACTGCCGCCCGACCATGCC,binding result,[7],binds
DVU0123 motif wt (dsDNA) DNA 1: CGAACAGGAACATGTTCCCTCAAAGGAACATCGTTGGTGGAA DNA 2: TTCCACCAACGATGTTCCTTTGAGGGAACATGTTCCTGTTCG,binding result,[8],binds
DVU0123 motif mut (dsDNA) DNA 1: CGAACAGGAACTTCTTGCCTCAAAGGTACGTCGTTGGTGGAA DNA 2: TTCCACCAACGACGTACCTTTGAGGCAAGAAGTTCCTGTTCG,binding result,[9],no binding
